US20230340160A1 (published 2023)

T1: human CEA expressed on tumor cells (human, UniProt P06731 35-702)
T1 sequence (looked up): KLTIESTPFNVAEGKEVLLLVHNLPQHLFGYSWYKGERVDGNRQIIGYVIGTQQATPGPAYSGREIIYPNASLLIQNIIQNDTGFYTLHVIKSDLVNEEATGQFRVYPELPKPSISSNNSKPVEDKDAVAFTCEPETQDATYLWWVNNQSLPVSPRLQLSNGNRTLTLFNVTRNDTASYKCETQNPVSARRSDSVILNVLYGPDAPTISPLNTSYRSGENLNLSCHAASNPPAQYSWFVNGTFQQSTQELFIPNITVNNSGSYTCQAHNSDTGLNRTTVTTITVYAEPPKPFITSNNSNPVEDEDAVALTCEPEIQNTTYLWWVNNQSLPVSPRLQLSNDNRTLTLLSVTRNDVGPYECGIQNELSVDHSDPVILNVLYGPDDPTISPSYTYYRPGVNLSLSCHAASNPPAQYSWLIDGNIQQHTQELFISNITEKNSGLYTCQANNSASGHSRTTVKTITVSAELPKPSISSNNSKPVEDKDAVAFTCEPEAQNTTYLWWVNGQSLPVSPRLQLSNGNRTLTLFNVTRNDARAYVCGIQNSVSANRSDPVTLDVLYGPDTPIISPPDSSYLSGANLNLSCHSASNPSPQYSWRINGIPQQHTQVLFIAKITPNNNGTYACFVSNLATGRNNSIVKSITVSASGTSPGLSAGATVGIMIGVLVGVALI

B1: CD3/MCSP “1+1 IgG Crossfab”; VL/VH exchange (LC007/V9) (bispecific antibody)
heavy: DIQMTQSPSSLSASVGDRVTITCRASQDIRNYLNWYQQKPGKAPKLLIYYTSRLESGVPSRFSGSGSGTDYTLTISSLQPEDFATYYCQQGNTLPWTFGQGTKVEIKSSASTKGPSVFPLAPSSKSTSGGTAALGCLVKDYFPEPVTVSWNSGALTSGVHTFPAVLQSSGLYSLSSVVTVPSSSLGTQTYICNVNHKPSNTKVDKKVEPKSCGGGGSGGGGSEVQLQESGPGLVKPSQSLSLTCSVTGYSITSGYYWNWIRQFPGNKLEWMGYITYDGSNNYNPSLKNRISITRDTSKNQFFLKLNSVTTEDTATYYCADFDYWGQGTTLTVSSASTKGPSVFPLAPSSKSTSGGTAALGCLVKDYFPEPVTVSWNSGALTSGVHTFPAVLQSSGLYSLSSVVTVPSSSLGTQTYICNVNHKPSNTKVDKKVEPKSCDKTHTCPPCPAPEAAGGPSVFLFPPKPKDTLMISRTPEVTCVVVDVSHEDPEVKFNWYVDGVEVHNAKTKPREEQYNSTYRVVSVLTVLHQDWLNGKEYKCKVSNKALGAPIEKTISKAKGQPREPQVCTLPPSRDELTKNQVSLSCAVKGFYPSDIAVEWESNGQPENNYKTTPPVLDSDGSFFLVSKLTVDKSRWQQGNVFSCSVMHEALHNHYTQKSLSLSPGK
chain: not shown
light 1: DIVLTQSPSSLSASLGDRVTISCSASQGIRNYLNWYQQRPDGTVKLLIYYTSSLHSGVPSRFSGSGSGTDYSLTISNLEPEDIATYYCQQYSKLPWTFGGGTKLEIKRTVAAPSVFIFPPSDEQLKSGTASVVCLLNNFYPREAKVQWKVDNALQSGNSQESVTEQDSKDSTYSLSSTLTLSKADYEKHKVYACEVTHQGLSSPVTKSFNRGEC
light 2: EVQLVESGGGLVQPGGSLRLSCAASGYSFTGYTMNWVRQAPGKGLEWVALINPYKGVSTYNQKFKDRFTISVDKSKNTAYLQMNSLRAEDTAVYYCARSGYYGDSDWYFDVWGQGTLVTVSSASVAAPSVFIFPPSDEQLKSGTASVVCLLNNFYPREAKVQWKVDNALQSGNSQESVTEQDSKDSTYSLSSTLTLSKADYEKHKVYACEVTHQGLSSPVTKSFNRGEC
B2: “2+1 IgG Crossfab (CL/CH1)”; CL/CH1 exchange (M4-3 ML2/V9) (bispecific antibody)
heavy 1: not shown
heavy 2: QVQLQESGPGLVKPSQTLSLTCTVSGGSITSGYYWNWIRQHPGKGLEWIGYITYDGSNNYNPSLKSRVTISRDTSKNQFSLKLSSVTAADTAVYYCADFDYWGQGTLVTVSSASTKGPSVFPLAPSSKSTSGGTAALGCLVKDYFPEPVTVSWNSGALTSGVHTFPAVLQSSGLYSLSSVVTVPSSSLGTQTYICNVNHKPSNTKVDKKVEPKSCDKTHTCPPCPAPEAAGGPSVFLFPPKPKDTLMISRTPEVTCVVVDVSHEDPEVKFNWYVDGVEVHNAKTKPREEQYNSTYRVVSVLTVLHQDWLNGKEYKCKVSNKALGAPIEKTISKAKGQPREPQVCTLPPSRDELTKNQVSLSCAVKGFYPSDIAVEWESNGQPENNYKTTPPVLDSDGSFFLVSKLTVDKSRWQQGNVFSCSVMHEALHNHYTQKSLSLSPGK
light 1: not shown
light 2: DIQMTQSPSSLSASVGDRVTITCRASQDIRNYLNWYQQKPGKAPKLLIYYTSRLESGVPSRFSGSGSGTDYTLTISSLQPEDFATYYCQQGNTLPWTFGQGTKVEIKSSASTKGPSVFPLAPSSKSTSGGTAALGCLVKDYFPEPVTVSWNSGALTSGVHTFPAVLQSSGLYSLSSVVTVPSSSLGTQTYICNVNHKPSNTKVDKKVEPKSC
B3: CD3/MCSP “1+1 CrossMab”; CL/CH1 exchange (LC007/V9) (bispecific antibody, human IgG1, kappa, L234A L235A)
heavy 1: not shown
heavy 2: EVQLQESGPGLVKPSQSLSLTCSVTGYSITSGYYWNWIRQFPGNKLEWMGYITYDGSNNYNPSLKNRISITRDTSKNQFFLKLNSVTTEDTATYYCADFDYWGQGTTLTVSSASTKGPSVFPLAPSSKSTSGGTAALGCLVKDYFPEPVTVSWNSGALTSGVHTFPAVLQSSGLYSLSSVVTVPSSSLGTQTYICNVNHKPSNTKVDKKVEPKSCDKTHTCPPCPAPEAAGGPSVFLFPPKPKDTLMISRTPEVTCVVVDVSHEDPEVKFNWYVDGVEVHNAKTKPREEQYNSTYRVVSVLTVLHQDWLNGKEYKCKVSNKALGAPIEKTISKAKGQPREPQVCTLPPSRDELTKNQVSLSCAVKGFYPSDIAVEWESNGQPENNYKTTPPVLDSDGSFFLVSKLTVDKSRWQQGNVFSCSVMHEALHNHYTQKSLSLSPGK
light 1: B1 light 1
light 2: B2 light 2
B4: “1+1 IgG Crossfab light chain (LC) fusion” (CH1A1A/V9) (bispecific antibody)
heavy: not shown
chain: DKTHTCPPCPAPEAAGGPSVFLFPPKPKDTLMISRTPEVTCVVVDVSHEDPEVKFNWYVDGVEVHNAKTKPREEQYNSTYRVVSVLTVLHQDWLNGKEYKCKVSNKALGAPIEKTISKAKGQPREPQVCTLPPSRDELTKNQVSLSCAVKGFYPSDIAVEWESNGQPENNYKTTPPVLDSDGSFFLVSKLTVDKSRWQQGNVFSCSVMHEALHNHYTQKSLSLSPGK
light 1: DIQMTQSPSSLSASVGDRVTITCKASAAVGTYVAWYQQKPGKAPKLLIYSASYRKRGVPSRFSGSGSGTDFTLTISSLQPEDFATYYCHQYYTYPLFTFGQGTKLEIKRTVAAPSVFIFPPSDEQLKSGTASVVCLLNNFYPREAKVQWKVDNALQSGNSQESVTEQDSKDSTYSLSSTLTLSKADYEKHKVYACEVTHQGLSSPVTKSFNRGECGGGGSGGGGSGGGGSGGGGSEVQLVESGGGLVQPGGSLRLSCAASGYSFTGYTMNWVRQAPGKGLEWVALINPYKGVSTYNQKFKDRFTISVDKSKNTAYLQMNSLRAEDTAVYYCARSGYYGDSDWYFDVWGQGTLVTVSSASVAAPSVFIFPPSDEQLKSGTASVVCLLNNFYPREAKVQWKVDNALQSGNSQESVTEQDSKDSTYSLSSTLTLSKADYEKHKVYACEVTHQGLSSPVTKSFNRGEC
light 2: B2 light 2
notes: also called 1+1 IgG Crossfab LC fusion
B5: “2+1 IgG Crossfab (VL/VH)”; VL/VH exchange (M4-3 ML2/V9) (bispecific antibody)
heavy 1: not shown
heavy 2: B2 heavy 2
light 1: not shown
light 2: B1 light 2

Tests used:
[1] = molecular target: human MCSP expressed on tumor cells (human, UniProt Q6UVK1 30-2322); assay: cell-based or functional assay
[2] = molecular target: T2, human CD3 expressed on Jurkat cells (human, UniProt P07766 23-207); assay: flow cytometry on Jurkat cells
T2 construct: CD3 complex on Jurkat cells (ATCC TIB-152); also called huCD3
Experimental: Binding of the different bispecific constructs to CD3 on Jurkat cells (ATCC #TIB-152), and the respective tumor antigen on target cells, was determined by FACS. Briefly, cells were harvested, counted and checked for viability. 0.15 - 0.2 million cells per well (in PBS containing 0.1% BSA; 90 µl) were plated in a round-bottom 96-well plate and incubated with the indicated concentration of the bispecific constructs and corresponding IgG controls (10 µl) for 30 min at 4° C. For a better comparison, all constructs and IgG controls were normalized to same molarity. After the incubation, cells were centrifuged (5 min, 350 × g), washed with 150 µl PBS containing 0.1% BSA, resuspended and incubated for further 30 min at 4° C. with 12 µl/well of a FITC-or PE-conjugated secondary antibody. Bound constructs were detected using a FACSCantoII (Software FACS Diva). The “(scFv)₂” molecule was detected using a FITC-conjugated anti-His antibody (Lucerna, #RHIS-45F-Z). For all other molecules, a FITC- or PE-conjugated AffiniPure F(ab′)2 Fragment goat anti-human IgG Fcγ Fragment Specific (Jackson Immuno Research Lab # 109-096-098 / working solution 1:20, or #109-116-170 / working solution 1:80, respectively) was used. Cells were washed by addition of 120 µl/well PBS containing 0.1% BSA and centrifugation at 350 × g for 5 min. A second washing step was performed with 150 µl/well PBS containing 0.1% BSA. Unless otherwise indicated, cells were fixed with 100 µl/well fixation buffer (BD #554655) for 15 min at 4° C. in the dark, centrifuged for 6 min at 400 × g and kept in 200 µl/well PBS containing 0.1% BSA until the samples were measured with FACS CantoII. EC50 values were calculated using the GraphPad Prism software.
As a control, the equivalent maximum concentration of the corresponding IgGs and the background staining due to the labeled 2ndary antibody (goat anti-human FITC-conjugated AffiniPure F(ab′)2 Fragment, Fcγ Fragment-specific, Jackson Immuno Research Lab # 109-096-098) were assessed as well.

[3] = molecular target: T1, human CEA expressed on tumor cells; assay: cell-based or functional assay

Chain of human MCSP expressed on tumor cells (Q6UVK1 30-2322): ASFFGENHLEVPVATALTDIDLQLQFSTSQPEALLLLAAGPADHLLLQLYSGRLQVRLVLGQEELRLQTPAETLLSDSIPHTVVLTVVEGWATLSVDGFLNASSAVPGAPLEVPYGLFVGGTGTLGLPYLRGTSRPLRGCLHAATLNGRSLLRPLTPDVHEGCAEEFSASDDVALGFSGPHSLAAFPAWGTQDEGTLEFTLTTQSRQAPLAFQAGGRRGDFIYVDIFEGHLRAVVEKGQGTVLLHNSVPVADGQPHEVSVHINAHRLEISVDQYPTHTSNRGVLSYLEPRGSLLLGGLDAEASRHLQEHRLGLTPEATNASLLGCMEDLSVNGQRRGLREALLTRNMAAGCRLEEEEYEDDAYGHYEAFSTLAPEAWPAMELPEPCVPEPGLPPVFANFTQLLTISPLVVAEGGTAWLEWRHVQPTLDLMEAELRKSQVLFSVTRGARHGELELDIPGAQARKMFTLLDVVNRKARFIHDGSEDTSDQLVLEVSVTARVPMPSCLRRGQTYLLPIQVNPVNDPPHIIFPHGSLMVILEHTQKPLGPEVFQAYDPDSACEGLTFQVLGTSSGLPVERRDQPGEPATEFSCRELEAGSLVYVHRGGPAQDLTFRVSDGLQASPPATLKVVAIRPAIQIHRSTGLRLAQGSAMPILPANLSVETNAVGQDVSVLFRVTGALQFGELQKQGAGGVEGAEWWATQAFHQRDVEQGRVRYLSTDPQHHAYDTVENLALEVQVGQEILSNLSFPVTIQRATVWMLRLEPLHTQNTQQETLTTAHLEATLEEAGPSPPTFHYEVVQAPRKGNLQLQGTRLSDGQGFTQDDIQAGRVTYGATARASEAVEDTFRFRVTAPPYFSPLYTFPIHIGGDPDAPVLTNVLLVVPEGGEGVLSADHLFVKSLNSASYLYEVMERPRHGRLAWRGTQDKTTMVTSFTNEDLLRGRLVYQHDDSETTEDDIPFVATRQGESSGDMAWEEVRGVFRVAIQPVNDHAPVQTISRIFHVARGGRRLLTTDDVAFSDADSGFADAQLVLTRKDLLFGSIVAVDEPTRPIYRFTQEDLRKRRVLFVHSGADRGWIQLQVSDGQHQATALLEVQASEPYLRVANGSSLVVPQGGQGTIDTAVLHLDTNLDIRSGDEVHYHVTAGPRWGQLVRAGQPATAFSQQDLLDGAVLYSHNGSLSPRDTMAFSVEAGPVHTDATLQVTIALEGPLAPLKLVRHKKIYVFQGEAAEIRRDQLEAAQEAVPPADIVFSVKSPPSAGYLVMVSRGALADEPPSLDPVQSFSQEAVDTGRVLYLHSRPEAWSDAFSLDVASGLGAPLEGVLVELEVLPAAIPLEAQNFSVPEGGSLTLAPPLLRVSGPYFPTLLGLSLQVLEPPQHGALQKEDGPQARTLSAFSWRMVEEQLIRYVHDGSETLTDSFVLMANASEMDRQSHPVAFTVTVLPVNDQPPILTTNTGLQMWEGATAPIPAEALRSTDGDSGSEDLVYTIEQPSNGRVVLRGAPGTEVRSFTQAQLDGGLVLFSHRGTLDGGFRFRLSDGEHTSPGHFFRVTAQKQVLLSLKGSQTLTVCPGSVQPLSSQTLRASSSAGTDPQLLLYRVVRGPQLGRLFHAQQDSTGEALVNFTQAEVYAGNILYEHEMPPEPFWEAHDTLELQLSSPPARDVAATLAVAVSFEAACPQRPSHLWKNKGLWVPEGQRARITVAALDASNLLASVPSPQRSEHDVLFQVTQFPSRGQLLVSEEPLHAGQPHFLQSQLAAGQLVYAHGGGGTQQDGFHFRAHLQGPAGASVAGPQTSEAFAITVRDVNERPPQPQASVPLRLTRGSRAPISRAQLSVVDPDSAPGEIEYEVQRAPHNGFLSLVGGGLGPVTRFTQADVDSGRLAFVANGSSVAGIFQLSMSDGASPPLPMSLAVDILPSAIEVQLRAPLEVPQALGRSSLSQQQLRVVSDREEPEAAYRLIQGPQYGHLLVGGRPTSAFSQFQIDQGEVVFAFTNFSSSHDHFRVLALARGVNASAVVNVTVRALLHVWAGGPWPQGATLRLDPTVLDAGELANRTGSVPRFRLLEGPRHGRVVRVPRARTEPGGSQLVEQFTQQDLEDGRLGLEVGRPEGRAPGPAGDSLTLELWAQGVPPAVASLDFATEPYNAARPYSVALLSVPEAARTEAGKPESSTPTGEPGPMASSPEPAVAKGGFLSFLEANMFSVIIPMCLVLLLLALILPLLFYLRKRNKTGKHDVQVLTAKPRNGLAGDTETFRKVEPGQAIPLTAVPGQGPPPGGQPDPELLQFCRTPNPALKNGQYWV
T2 sequence (P07766 23-207 limits assumed): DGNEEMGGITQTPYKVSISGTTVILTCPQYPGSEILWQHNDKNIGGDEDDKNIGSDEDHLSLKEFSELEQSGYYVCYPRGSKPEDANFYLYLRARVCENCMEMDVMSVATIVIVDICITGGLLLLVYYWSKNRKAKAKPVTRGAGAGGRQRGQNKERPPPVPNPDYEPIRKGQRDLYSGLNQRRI

Row | Binder | EC50 of killing (LDH release) of MV-3 cells, human PBMCs, E:T 10:1, 21 h [1] [pM] | EC50 of killing (LDH release) of WM266-4 cells, human PBMCs, E:T 10:1, 21 h [1] [pM] | EC50 of killing (LDH release) of MV-3 cells, human PBMCs, E:T 10:1, 27 h [1] [pM] | EC50 of killing (LDH release) of WM266-4 cells, human PBMCs, E:T 10:1, 26 h [1] [pM] | other results
1 | B1 | 40.9 | 28.4 | – | – | –
2 | B2 | – | – | ~11.7 | 12.9 | –
3 | B3 | 88.4 | 53.9 | – | – | –
4 | B4 | – | – | – | – | binding result [2]: binds; EC50 of killing (LDH release) of LS-174T cells, human PBMCs, E:T 10:1, 28 h [3]: 1.56 nM; EC50 of killing (LDH release) of MC38-huCEA cells, human PBMCs, E:T 10:1, 24 h [3]: ~3.2 nM; EC50 of killing (LDH release) of MKN-45 cells, human PBMCs, E:T 10:1, 28 h [3]: 213 pM
5 | B5 | – | – | ~82.2 | 16.8 | –
